Reference: the DeepSol protein solubility set

Experiment: soluble on expression in E. coli; label from the status in PepcDB or PDB records

Sequence | soluble on expression in E. coli
GPGSMIGAPWPPEAVFGNTVDRVASPAPVPERKISIADQLHLPLSRFVEKMSWGEKRRVQILHGMLYPATVYLLDECSTDIDVAERRTVLELVRQECEAKDGCCVYATHIFDGIEGWATHLLLMEGGRVVDFKAVEKLTLPLEDYALQFMSKRAHAARGVDGVAAASLSHGSSAAISTTS | soluble
MGSDKIHHHHHHMTGRVVTVFGGSGSIGRQLVALLADQGARVRVAVRDTEKAHFLKPLGQLGQIAPISASVSDAASVKRAVEGADQVVNLVGILAESGRRTFQAVHVDGAATVARASAEAGVDALIHMSALGADEASDANYSKTKALGEKAVREAFPAATILRPSVVFGPDDGFFNLFAGLQRLSPVLPYFTRDGFRRGGSGVCGIDLAGSGGPKFQPVYVGDVARAMIAILDTPALRGKTYELGGPRVYSMKEIMDLVVAVTRRRTLVVPLPFWVARLQGRLLEKLPNPPLTSDQVRLMEVDNVCSGALPGLGDLGIEPEAAEAILPTYLSRFRGLDRHMILRGDGRPPKV | not soluble
MGSDKIHHHHHHMKKLLNTLYVTRQETYVHKERDTIVINSAGEKLAQFPALTISNILCFGQVSVSPPMMGYCGENGIGLVFYTEYGRFLARMIGKQTGNVLLRRTQYRLADDPEKANAIARVMVGAKIANARTVLMREIRNHGEHANISRAVEQLGYSLKSCQFSQSVPQTMGIEGDAAATYFSVFNGLIRGSRFQFNGRIRRPATDPVNALLSFIYSLITQECVSALMGVGLDPYVGFLHQDRPGRPSLALDLLEEFRASWADRFVLTLLNRRQLSPQAFVTEASGAVRLTDDTRKQVLVAFQERKQEEVVHPYLQEKVPYGLLPHCQALLLARHLRGDMEFYTPYLIK | not soluble
MTEITGGTLVLVGADHPVAHLDVTAFEASVTHDVMAASVAGTGLGVSTATAAGLSHLVVDAGVAQPVQGARSVRIRGERGDLRHADAMTPVQVEALLRDGQALGAEASHDGLVCLGEVGVGNTTIATALACAMTGLGPDEAVGLGAGSDTAMVERKAEIIKAALTRTHTDPNDPERLLAALGGPEFAVLAGVCLGAAEAGSPVVLDGLATSVAALIATKFSPGLHGWLVASQASREQVHHIVLAELGLEALMELRMRAGEGVGACFGAQMILTGLQVRRTAARTCLEHHHHHH | not soluble
MKIVAVTACPTGIAHTYMAADALTKAAPKYNVQIKVETQGAMGIENPLTPYDLSHADKVLIVSDIDIEQPARFEGMKVVKLSIEEVLLNVDKVFLVHCR | not soluble
MGRVYYGGVERTYLYRGRILNLALEGRYEIVEHKPAVAVIALREGRMLFVRQMRPAVGLAPLEIPAGLIEPGEDPLEAARRQLAEETGLSGDLTYLFSYFVSPGFTDEKTHVFLAENLKEVEAHPDEDEAIEVVWMRPEEALERHQRGEVEFSATGLVGVLYYHAFLRGR | soluble
MKITFLGAAKTVTGSCFFVETASTKFLVDCGMFQGYSKNNALNEEEFPFNVEELDYIFLTHAHIDHSGRIPRIYIKGFRGQIIATKATVELCAIMLPDSGHIQEYENEWTNRKRLRAGKPPVEPLYTYQDAVNCLELFRKVSYDEVIKINDEIRVRFRDAGHILGSAIIEMWINERGEEIKIVFSGDLGNKDIPILRDPSIIESADYLVIESTYGNRLHNERVDKAEYFLNLINSTIEKGGNVIIPSFAAGRTQELIYELNKKKEVYDEKLKMLFATPVYIDSPMAISATEVFRNNLDCYDEEAREYIENGDNPLDFPGLQFTRTAEESKALNERKESSIIIAASGMCEAGRIRHHLKHNLWRKDSTIIFVGYQAEGTLGRRLLDGAKKVRLFGEEISVEARIEMIEGFSGHADKEGLLKWIERFNRKPKKIFIVHGEEDAMIEFSEEINRRFNIETVIPSRGESFILNAHNVIAIDEKVRPDNSFRILQVVEKLENIKEEVEELSYILKSDLKQDKTDLELDELMAKLKNIEKSILEALK | not soluble
MDVRSAPSNHATAVPTAQPSAPSIKSTLSKLFRAQCSDPVPLSSSSSTERIAPPRVTANYSAVVDISKTASHSKTNADTAEKNSFSWLKNKLSTVSENQQKKQAIQNFIAQVSQQYNVEEDVAKLAVAASGAYRQLRFEETQQQRVHACLQDTEALTAMIDLATRKPLTYKMVMGLDSSDCSFDPIARISDHDILTEAEQCQVVRSAFASADKVCVVTSYGIKPLGAPKSDALSPTIASVLQGFASKQHDKDFTGVFFYQKSDAIQNYYTEDKRTNISIKENDWAKAVTLFNAAVERGEIEGPKEGLK | not soluble
MGSDKIHHHHHHMAILERKIIHEIDTSCSHIIYPQFVLPRHKHAEYEIMLFTQGSGKQFVGEGVADFQEGDIALIGSNVPHLHLCNSKLNPVANTVCSAGEALQFLPDIFPVHIENLPDYQEIYRLLRKSQYGVRFYDKGLYDEVKELFQEMDLLKHTNRLITILRILGRLTECRNIKLLSDVAYNGSNRLLEVNEPVNKVYTYLFNHFKEKVLLQEVADYVKQNPSALCRYFKQRTDKSIFQCLAEIRIEHACKLLSYSNLSVSQIAFESGFNSVPYFIKQFQSITEKTPGEYRELIGR | not soluble
MFSQWVFLSVLALAVPSFAWAEDAVSDLAREQSKAEQGDKRGDELFAEFTRLRQAAETGEPQALFDFGAYFYQQQNYASAREWWGKAAAAGMVRAQIQLAMLYRDGDGGPQDKTEAARWFRKAAEQGDAAAQNEMGVLYWRGEGVDQDRVKAGTWFERAAASGSEDAETNLGWFYLDDSQGVYSATSDEEAALLDRYAGSREKAFQWFCKAATQGDARAQFKVGEAYWNGSGAGMNKLQARLWLEKAAQQQDADAIAWLESAANAAWYTRLENWIHAALDGELSGVADCSGAADRRHSGRGMEGAPSDPEAVEASAEDAQQAVEAASQ | not soluble
MGSDKIHHHHHHMALVALPGGGAVDPAFWSVQAAEDFEQEIVDQYALAMAAAGLSDSHIRNTRSTIIEFARSVTGPLWAATCQDADRFLAEQRRLGRSVSTRAGKAGTLALFYEFMISRYQGRIHRLTGVLVEQPIDEFNRQAGASLGKVRVPPSDAEIDAFFTCWRHSIPQARKYLPAARDYFAASLWRRLGLRITETVMLDIRDWRPDLGGFGKLHVRYGKGAHGRGPKPRLVPAINGAAELIDWWLGDVRHRYGEDWADPDAPLLPSERFDRELGRCGRVGGNALRRSLGLQVDQWLPAWSGRMTPHVLRHYCASSLYGAGMDIKALQELLGHQWLSTTSGYIHVRSEHVEQAWKNANERVESRFATTQKEG | not soluble
MKLDLDAFRIQPGKKPNLAKRPTRIDPVYRSKGEYHELLANHVAELSKLQNVLYADNRYAILLIFQAMDAAGKDSAIKHVMSGVNPQGCQVYSFKHPSATELEHDFLWRTNCVLPERGRIGIFNRSYYEEVLVVRVHPEILEMQNIPHNLAHNGKVWDHRYRSIVSHEQHLHCNGTRIVKFYLHLSKEEQRKRFLERIDDPNKNWKFSTADLEERKFWDQYMEAYESCLQETSTKDSPWFAVPADDKKNARLIVSRIVLDTLESLNLKYPEPSPERRKELLDIRKRLENPENGK | not soluble
MSLNPKAKFAVIDDLETSRLHISHILQEDGFTVDLFDSATQFLLMKDEILDYAGLIIDIHMPGYNGYELAETIHAMFGTSAPPFIFISASPESIRHDRFNTEHMWQGFAKPMDKNRFIDSIRVLSDKSSLKTEAFEPASVLLVEDEPINAEVVKTMLERNGHTVEVATTGAAALHLATTVPFNLILMDINLPDMSGIETTRCIKAQGVDTEIVALTGNAYEEDKLKTKEAGMSYHLVKPVMYHELNNVIKLALRVAHEGHHHHHH | soluble
MSLFQDNPLLAQLKQKIQETLPKKEGTIKASDKGFGFLEVDSKTSYFVPPPYMKKCMHGDKVVAFIRTENEREVAEPSELIEQSLTRFIGRVKLFKGKLNVAPDHPQLKKLSLKAKTKKGLNEADFQEGDWVVAHLVRHPLKGDDGFFVQISHKITDANDKIAPWWVTLAENDLPNSEPAGIDDWQLKDDADLVREDLTALPFVTIDGESTKDMDDALYAQQLPNGDFALTIAIADPTAYITPEDEMDKVARERGFTIYLPGRNIPMLPRDLADELCSLMENQVRPALCCSVTIRKDGVIGDDIRFFAANIKSHARLVYDHVSDWLETGSSEQWQPSEEIAQVVRDLYAFSQARANWRETHAVVFPDRPDYRFELSADNDVVAIHADMRRTANRLVEESMITANICAGKTLQTTFGFGVFNTHAGFKAEKMADVVELMAVNGAPNADAETLATVEGFAALRRWLATQETSYLDNRIRKYQSYSEIGNQPLPHFAMGLDVYATWTSPIRKYGDMINHRLLKAHILGKAPVQTPDETVGEELALHRKHHKIAERNVADWLYARTLADEPAKETRFQAEIFDINRPGMRVRLLENGAMAFIPGALILDNKERIECNGEDGTVLIDKEVVYKLGDVLEIVLTEVNQENRSLVGKPTQVFADLVSETQTSAEQPAEGAENNEPQVEGHHHHHH | soluble
MGSDKIHHHHHHMWLSSEFNRMAEKTFKAYEPDDAFFSTLLYGPEGVGKSTLLVKCCQRLKEKKTILYIDAQDFVKNYAFAAQEGTLSQFRLRLRTPGVLIMDHIEVLKGKTRSIEEFYHTYEALFQRNGRIICGFRGDPSQLGFLGEKLSSRLRGGLVVPILQPTPEDMLNYLRQMAYGKFLIVEDLVLELMAEEAANFPEAQSLMNGFIQFANRTDSALDHDALLLYLQERRYQEGLRPSPQNIIQKVAELTGVAAAAIYSTTRTPEVRQARQLAIYGIRSLSRLSYPEIGASLNKSHSSIMKSYQQFQEAVQKNPELREMLESLVKYFNSPDDEKTER | not soluble
MKWYTKYLQVYEKPFSEAPQEIVEEVRNKLKLLQSDNPLVTVSLIGYNEEKHLLASLWSLSEMKCKYPIEIIGTDNDSKDQTATIYEATGIPYVIEHQHSCGHARLCGLKRAKGKYHINIDSDTMYPPHYVETMVDALERPGIVAVSSLWSYIPDKEHSWVGLKIYEFIRDIHLWIQSIKRPELSVRGLVFAYRTDYARQVGIRTDIRRGEDGSLALRLKEYGNIYFIRKRKARAITGYGTISADGSLFNSFKVRAIYALKNIGRVFTRKKEYKDEDDNLIKSLEHHHHHH | soluble
GSVASVHASISGSSASSTSSTPEVKPLKSLLGDSAPTLHLNKGMAILFAVVARGTTILAKHAWCGGNFLEVTEQILAKIPSENNKLTYSHGNYLFHYICQDRIVYLCITDDDFERSRAFSFLNEVKKRFQTTYGSRAQTALPYAMNSEFSSVLAAQLKHHSENHHHHHH | soluble
MGSDKIHHHHHHMKQVDYIIVGQGLAGSCLVQSLWHEKQSVVVIASSERKASSTVAAGLYNPITGKKMLLTWNAAVLFPYLDLFYRSAERELDTTILYPKAIVRPFTDIQAQNDFWAKSTPEIAAFAEPEQNIEKYDPYIWFPYGGLITKHSGYVDVQAFLGAIKQKLVEKDQYIEETFDHAALQFSTNSVAYKGIQAKKIIFAEGFHNTRNPIFNWVPVKGMKGDVLTLDIEAYALKEVVNKHFFIIPLPNGKFRMGSSYIREFEDDAPTEGGLKEITEGAHTILKKPFVVIEQKAGIRPVVPDHRPIIGEHPEQPLALIFNGLGTKGVSIAPYASKTLTNFLLLNQEIDQSMSVNRFNYLYFKQKNN | not soluble
MDIRPARISDLTGMQNCNLHNLPENYQLKYYLYHAISWPMLSYVATDPKGRVVGYVLAKMEEEPKDGIPHGHITSVSVMRSYRHLGLAKRLMVQSQRAMVEVYGAKYMSLHVRKSNRAAIHLYRDTLQFDVQGIESKYYADGEDAYAMHKDFSTLKFDTPETNDELAKTVQSLALNN | soluble
MGSDKIHHHHHHMTKPFYWNELNTYDFASLSPDSTIAVLPIASTEQHGPHLPIATDVAIANGMLAELKRQRPDDLNFLVLPTQEIGKANEHVYGPGTLSLSADLLIAAWTAIGAKVAEAGLRKLVIVNSHGGNVDIMSIVGRELRVRHKMAVVSTQWSRFGNPEGMISEHENRYGIHGGEVETSLMLHFRPELVRMDKAENFVSKAEWMKERSDFLQPLPPHSLAWIAHDLNPAGVVGDASKGTAEKGEAICRHQVSGFIQLLRDVRDYPLSALYSPE | not soluble
